Key:
Assay in all cases: MST; Clr4 constructs fluorescently labelled (BLUE-NHS), H3KC9me3 nucleosomes added at 8 nM to 2.5 μM; 10 mM Tris–HCl pH 7.5, 150 mM NaCl, 0.5 mM DTT, 0.05% Tween-20; 40% MST power, 80% LED; five runs
[1] = target: Clr4 chromodomain construct (S. pombe) (UniProt O60016)
[2] = target: Clr4 CD-deleted construct (S. pombe)
[3] = target: full-length Clr4 (Cryptic loci regulator protein 4), H3K9 methyltransferase (S. pombe) (UniProt O60016)

- Kd [1]: 310 nM
- Kd [2]: 422 nM
- Kd [3]: 541 nM
Substance: H3KC9me3 nucleosome (H3K9 trimethyl-lysine analog nucleosome) (complex)

From PMC10914790
